Experimental findings from the DeepSol protein solubility set are described below.

The data set in a line: soluble on expression in E. coli; label from the status in PepcDB or PDB records.
As for “VMPLILLPAVDVVEGRAVRLVQGKAGSQTEYGSAVDAALGWQRDGAEWIHLVDLDAAFGRGSNHELLAEVVGKLDVQVELSGGIRDDESLAAALATGCARVNVGTAALENPQWCARVIGEHGDQVAVGLDVQIIDGEHRLRGRGWETDGGDLWDVLERLDSEGCSRFVVTDITKDGTLGGPNLDLLAGVADRTDAPVIASGGVSSLDDLRAIATLTHRGVEGAIVGKALYARRFTLPQALAAVRD”, the “soluble on expression in E. coli” value is on record as “soluble”.
On to “VNCVFITPDKMDGKRISYDYVVQQYEIQRLLQRRPLITLIDICKEITSGIRVKKEYYTDKNGYKIIAPGDIRNEVIYINELKVVQPEVVREKDIINNGDILITASGKSGQVIYVNEVLEGCVVTSDIIKITLRDRDKGIRLYKFLKSSIGQMLLNSIKIGILNKIFVEDVENLLIPEDFDTYQEDCSDDSTVYAEAEKLYRSAENIFYRVFDYKGEKKNLKHFYVTEYLDSHRLDPEYYSNFYTELYRVIHKNFDDVKWEELGELVEIKKADKPEISKNQKVKYFLLADIDPNFSIIKETHEDFYGNLSNRMRYIVRRGEIVTAKGGSATGTKGHATALITEKFDGLVTTDALYNLVPRRINPYYLLFLFKQPIILNQVNMFTKGTLYKLIQRNDFEKIKIPRLESSLEEQIVDKMMNYLSVLQNKF”, for which the “soluble on expression in E. coli” value is “not soluble”.
“VNKLSPRFEINEGTYSSFAVAQEGAAPGAGEVRTHRIAVGLYSLIDGSVTRTHRVELDVDSELTEVPELVGVPAADLVIVNDDDLTYCLMQLDPASLAFVVENIDKIADPMARTLCWSAAWEMTRDGSMRARDFVRLIARGAQAETEIAVLERVLMQASRALSSYVDPQWAEQEGSALLADAMLQAARELEPGSDAQLAFVQALAKVKLTDEAAAEFALIAKGSTSLPGVVVDSDLRWWALTALIARGDVPAAEVEQRIAQLLALDKSSAGELAALRAYAAQPSQDVKAKIFAQITDPANSLSNLYLRHKLEGLQFAGSAPYLEQFSESVFELVEPLWKALSSEVAAVTVTGIYPSWDVSAESVERAHAFLDAHPDLPGAARRIISEGAAGQERAVRLRAIDAA”: the “soluble on expression in E. coli” value is listed as “not soluble”.
To “VQLQQSGPVLVKPGGSVKMSCKASEYTLTSYLFQWVKQKSGQGLEWIGYIYPYNGGTRYNEKFRGKATLTSDKSSNTAYLELSSLTSEDSAVYYCARSSMSDPGANWGPGTLVTVSSASTKGPSVFPLAPSSKSTSGGTAALGCLVKDYFPEPVTVSWNSGALTSGVHTFPAVLQSSGLYSLSSVVTVPSSSLGTQTYICNVNHKPSNTKVDKKVEP” belongs “soluble”; to “VQQTERAVMLRFGRVVESDVKPGLHFKIPYVNQVRKFDARLLTLDAPTQRFLTLEKKAVMVDAYAKWRVADAERFYTATSGLKQIADERLSRRLEAGLRDQFGKRTLHEVVSGERDALMGDITASLNRMAQKELGIEVIDVRVKAIDLPKEVNRSVFERMSTEREREAREHRAKGRELAEGIRADADRQRRVIVAEAYRESEETRGDGDSKAAAIYAKAYNQDPEFYSFYRSLKAYRESFAEKRDVLVLDPSSEFFRY”, “not soluble”; to “VRQRTIVCPLIQNDGAYLLCKMADDRGVFPGQWAISGGGVEPGERIEEALRREIREELGEQLLLTEITPWTFSDDIRTKTYADGRKEEIYMIYLIFDCVSANREVKINEEFQDYAWVKPEDLVHYDLNVATRKTLRLKGLL”, “soluble”.
To “VRRKVRRLTLAVSALVALFPAVAGCSDSGDNKPGATIPSTPANAEGRHGPFFPQCGGVSDQTVTELTRVTGLVNTAKNSVGCQWLAGGGILGPHFSFSWYRGSPIGRERKTEELSRASVEDINIDGHSGFIAIGNEPSLGDSLCEVGIQFSDDFIEWSVSFSQKPFPLPCDIAKELTRQSIANSK” belongs “not soluble”; to “VRSRNGGATKIVREHYLRSDIPCLSRSCTKCPQIVVPDAQNELPKFILSDSPLELSAPIGKHYVVLDTNVVLQAIDLLENPNCFFDVIVPQIVLDEVRNKSYPVYTRLRTLCRDSDDHKRFIVFHNEFSEHTFVERLPNETINDRNDRAIRKTCQWYSEHLKPYDINVVLVTNDRLNREAATKEVESNIITKSLVQYIELLPNADDIRDSIPQMDSFDKDLERDTFSDFTFPEYYSTARVMGGLKNGVLYQGNIQISEYNFLEGSVSLPRFSKPVLIVGQKNLNRAFNGDQVIVELLPQSEWKAPSSIVLDSEHFDVNDNPDIEAGDDDDNNESSSNTTVISDKQRRLLAKDAMIAQRSKKIQPTAKVVYIQRRSWRQYVGQLAPSSVDPQSSSTQNVFVILMDKCLPKVRIRTRRAAELLDKRIVISIDSWPTTHKYPLGHFVRDLGTIESAQAETEALLLEHDVEYRPFSKKVLECLPAEGHDWKAPTKLDDPEAVSKDPLLTKRKDLRDKLICSIDPPGCVDINDALHAKKLPNGNWEVGVHIADVTHFVKPGTALDAEGAARGTSVYLVDKRIDMLPMLLGTDLCSLKPYVDRFAFSVIWELDDSANIVNVNFMKSVIRSREAFSYEQAQLRIDDKTQNDELTMGMRALLKLSVKLKQKRLEAGALNLASPEVKVHMDSETSDPNEVEIKKLLATNSLVEEFMLLANISVARKIYDAFPQTAMLRRHAAPPSTNFEILNEMLNTRKNMSISLESSKALADSLDRCVDPEDPYFNTLVRIMSTRCMMAAQYFYSGAYSYPDFRHYGLAVDIYTHFTSPIRRYCDVVAHRQLAGAIGYEPLSLTHRDKNKMDMICRNINRKHRNAQFAGRASIEYYVGQVMRNNESTETGYVIKVFNNGIVVLVPKFGVEGLIRLDNLTEDPNSAAFDEVEYKLTFVPTNSDKPRDVYVFDKVEVQVRSVMDPITSKRKAELLLK”, “soluble”.
For “VSAETAARIDAESDSMDWPQEVTLGEVLRERFGDDLVDHVVSALQGGVYSSTSDDLSLRDTVPQLARALDRLKEEGKPVTITAAVQSIMADREKRNKARGYKPSVFAAFPGGYAELYEALAEKSGAKIHIDAFITGIQWKDGFTLKGAEGTFDK” the value was “not soluble”.
Regarding “VSELRLMAVHAHPDDESSKGAATLARYADEGHRVLVVTLTGGERGEILNPAMDLPDVHGRIAEIRRDEMTKAAEILGVEHTWLGFVDSGLPKGDLPPPLPDDCFARVPLEVSTEALVRVVREFRPHVMTTYDENGGYPHPDHIRCHQVSVAAYEAAGDFCRFPDAGEPWTVSKLYYVHGFLRERMQMLQDEFARHGQRGPFEQWLAYWDPDHDFLTSRVTTRVECSKYFSQRDDALRAHATQIDPNAEFFAAPLAWQERLWPTEEFELARSRIPARPPETELFAGIEP”, the “soluble on expression in E. coli” value is on record as “soluble”.
To “VSQVHRILNCRGTRIHAVADSPPDQQGPLVVLLHGFPESWYSWRHQIPALAGAGYRVVAIDQRGYGRSSKYRVQKAYRIKELVGDVVGVLDSYGAEQAFVVGHDWGAPVAWTFAWLHPDRCAGVVGISVPFAGRGVIGLPGSPFGERRPSDYHLELAGPGRVWYQDYFAVQDGIITEIEEDLRGWLLGLTYTVSGEGMMAATKAAVDAGVDLESMDPIDVIRAGPLCMAEGARLKDAFVYPETMPAWFTEADLDFYTGEFERSGFGGPLSFYHNIDNDWHDLADQQGKPLTPPALFIGGQYDVGTIWGAQAIERAHEVMPNYRGTHMIADVGHWIQQEAPEETNRLLLDFLGGLRP” belongs “soluble”; to “VTSPNSTAPTPSLITAPPPSTTEDLRLALRAATLYYLDGMTQAEVATRLGVSRPTAGRLVARARAQGLVRIEVQAPAHLRDALRSDEERALEEKYGLVEAVVVADSVDAAGAIDDHNSFAGVGRAAASLLVRRIREGDTLGFTWGPETVAVAQGLPSGAATCASVVQLDGSVSAINYQTGTEYVLGRCAEQLQANTVRLPVPLYADASTVVSMRGDSVISKALEAGRTAEMMMFGTGAVSTSTTLFEGSFIDTDMLSVLTGLGAVGEVGGRFYRLDGTEVAGPLDERAMSVPLDDIRACEGSILVTGGVAKHQAALGALHGGLAKMLVCDIECARWLLDQ”, “not soluble”.
For “VTVSTSTARSADDSDHSSEVARPTDSRRDPEVLREALQRWLAAQLPPDAAPEVTHVHLPDANGMSSETILFDATWSGEVHPLVARVAPADTTMPVFPEYDLDGQFQVMAQVREHSAVPVPVVYWSESDPGPLGAPFFVMARVSGQVPPDVMPYNFGSWVTEATEEQRALLQHSAVNVLAQLHDIDRPWERFAFLQLPGSGPTVTEALAAHIRQQRDYYEWTTLSGPRSPLIERGFAWMEDNLPDDPSPAVFCWGDARIGNMMFEDFRPVAVLDWEMATLGPRELDLGWMTYLHRFFEDIAASAGLDGMPDFLRLDDLAALYEELTGHTPRDLEYYTAYAALRQATIMLRIQERAIHFGQAVAPEDPDDMIMHRASLEAMLDGTYWEKIR” the value was “not soluble”.
